Results reported in PMC5700101.

Target: PBD–GFP (PBD of Polo, amino acids 350–576, C-terminally fused to GFP10) (UniProt P52304)
Experiment: BRET
Conditions: live HEK293T cells; fixed amount of Luc-KD vector, increasing PBD–GFP vector; Map205 fragment co-transfected; p-value < 0.0001; parent: 0.197

Luc-KD (KD–IDL of Polo, amino acids 1–349, N-terminally fused to RLucII), KD^WT (from UniProt P52304) NLS7A
other: BRET50: 2.49 GFP/Luc
